Measured values as given in patent publication US20190359698A1 (YAMAGUCHI UNIVERSITY, published 2019).
Positions count from the first letter of the chain named.

B1: IgG clone TF1413-02e030 (antibody, V domains shown)
VH: EVQLQQSGAELVRPGALVKLSCKASGFNIKDYYMHWVKQRPEQGLEWIGWIDPENGNTIYDPKFQGKASITADTSSNTAYLQLSSLTSEDTAVYYCAISTMITTLDYWGQGTTLTVSS
VL: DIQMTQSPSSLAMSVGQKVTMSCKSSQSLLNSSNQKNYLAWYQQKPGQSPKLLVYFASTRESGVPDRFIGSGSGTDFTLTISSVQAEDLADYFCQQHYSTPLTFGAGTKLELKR
notes: also called TF1413-02e030 IgG antibody
B2: IgG clone TF1413-02d039 (antibody, V domains shown)
VH: EVKLVESGGGLVKPGGSLKLSCAASGFAFSSYDMSWVRQTPEKRLEWVAYISSGGGSTYYPDTVKGRFTISRDNAKNTLYLQMSSLKSEDTAMYYCARRGLRRAMDYWGQGTSVTVSS
VL: DVVMTQTPLSLPVSLGDQASISCRSSQSLVHSNGNTYLHWYLQKPGQSPKLLIYKVSNRFSGVPDRFSGSGSGTDFTLKISRVEAEDLGVYFCSQSTHVPLTFGAGTKLELKR
notes: also called TF1413-02d039 IgG antibody
B3: IgG clone TF1413-02d028 (antibody, V domains shown)
VH: QVQLKESGPELEKPGASVKISCKASGYSFTGYNMNWVKQSNGKSLEWIGNIDPYYGGTSYNQKFKGKATLTVDKSSSTAYMQLKSLTSEDSAVYYCARGDYRAYYFDYWGQGTTLTVSS
VL: DIQMTQSPKFMSTSVGDRVSITCKASQNVRTAVAWYQQKPGQSPKALIYLASNRHTGVPDRFTGSGSGTDFTLTISNVQSEDLADYFCLQHWNYPLTFGAGTKLELKR
notes: also called TF1413-02d028 IgG antibody; scFv clone [TF1413-02d028] antibody
B4: IgG clone TF1413-02e040 (antibody, V domains shown)
VH: EVMLVESGPELVKPGASMKISCKASGYSFTGYTMNWVKQSHGKNLEWIGLINPYNGGTSYNQNFKGKATLTVDKSSSTAYMELLSLTSEDSAVYYCARGYYGRFDYWGQGTTLTVSS
VL: B3 VL with Q3L, M4L
notes: also called TF1413-02e040 IgG antibody
B5: IgG clone TF1413-03e034 (antibody, V domains shown)
VH: B3 VH with Q1E, K5Q, E6Q, D100N, R102G, A103Y, Y105A, F106M, T114S, L115V
VL: B3 VL with Q3V, T5S
notes: also called TF1413-03e034 IgG antibody
B6: IgG clone TF1413-02e014 (antibody, V domains shown)
VH: QVQLKQSGAELVRSGASVKLSCTASGFNIKDYYMHWVKQRPEQGLEWIGWIDPENGDTEYAPKFQGKATMTADTSSNTAYLQLSSLTSEDTAVYYCNAGYYDYDGYAMDYWGQGTSVTVSS
VL: DIVLTQSPKFMSTSVGDRVSITCKASQDVGTAVAWYQQKPGQSPKLLIYWASTRHTGVPDRFTGSGSGTDFTLTISNVQSEDLADYFCQQYSSYPLTFGGGTKLEIKR
notes: also called TF1413-02e014 IgG antibody
B7: IgG clone TF1413-03e005 (antibody, V domains shown)
VH: B6 VH with Q6E, G99F, S121R
VL: DVVMTQTPSSLSASLGERVSLTCRASQEISGYLSWLQQKPDGTIKRLIYAASTLDSGVPKRFSGSRSGSDYSLTISSLESEDFADYYCLQYASYPLTFGAGTKLELKR
notes: also called TF1413-03e005 IgG antibody
B8: IgG clone TF1413-02e004 (antibody, V domains shown)
VH: QVQLQQSGAELVKPGAPVKLSCKASGYTFTSYWMNWVKQRPGRGLEWIGRIDPSDSETHYNQKFKDEATLTVDKSSSTAYIQLSSLTSEDSAVYYCARGYYAMDYWGQGTSVTVSS
VL: DIVLTQSPKFMSTSVGDRVSITCKASQDVSTAVAWYQQKPGQSPKLLIYSASYRYTGVPDRFTGSGSGTDFTFTISSVQAEDLAVYYCQQHYSTPTFGGGTKLEIKR
notes: also called TF1413-02e004 IgG antibody
B9: IgG clone TF1413-03e004 (antibody, V domains shown)
VH: B8 VH with Q5K, E67K, A102G, M103S, D104N, S111T, V112L
VL: DIKMTQSPKFMSTSVGDRVSVTCKASQNVGTNVAWYQQKPGQSPKALIYSASYRYSGVPDRFTGSGSGTDFTLTISNVQSEDLAEYFCQQYNSYPLTFGAGTKLELKR
notes: also called TF1413-03e004 IgG antibody
B10: IgG clone TF1413-03e015 (antibody, V domains shown)
VH: EVQLQQSGPELVKPGASMKISCKASGYSFTGYTMNWVKQSHGKNLEWIGLINPYNGGTSYNQKFKGKATLTVDKSSSTAYMELLSLTSEDSAVYYCARGDYYPPYAMDYWGQGTSVTVSS
VL: B9 VL with K3V, T5S, A46P, S93R, A100V, L106I
notes: also called TF1413-03e015 IgG antibody

target: T1, GPC3 C-terminal fragment (polypeptide consisting of the amino acid sequence represented by SEQ ID NO: 156) (human); test: FCM of IgG on GPC3 C-terminal fragment-expressing cell line
T1 construct: domain: transmembrane domain; also called GPC3 C-terminal fragment-expressing cell line; C-terminal polypeptide of GPC3; not shown: HA tag added to the N terminus by the pDisplay vector; myc tag added to the C terminus of the PDGFR by the pDisplay vector
T1 sequence (P09619 other isoform, or with tags, fused parts or gaps): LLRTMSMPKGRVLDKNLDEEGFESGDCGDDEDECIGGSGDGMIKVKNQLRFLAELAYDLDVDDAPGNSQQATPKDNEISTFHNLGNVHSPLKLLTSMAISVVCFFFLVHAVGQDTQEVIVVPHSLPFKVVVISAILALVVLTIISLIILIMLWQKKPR

Binder	binding result
B1	no binding
B2	no binding
B3	no binding
B4	no binding
B5	no binding
B6	no binding
B7	no binding
B8	no binding
B9	no binding

target: T2, GPC3 N-terminal fragment (polypeptide consisting of the amino acid sequence represented by SEQ ID NO: 155) (human); test: FCM of IgG on GPC3 N-terminal fragment-expressing cell line
T2 construct: domain: transmembrane domain; also called GPC3 N-terminal fragment-expressing cell line; N-terminal polypeptide of GPC3; not shown: HA tag added to the N terminus by the pDisplay vector; myc tag added to the C terminus of the PDGFR by the pDisplay vector
T2 sequence (P09619 other isoform, or with tags, fused parts or gaps): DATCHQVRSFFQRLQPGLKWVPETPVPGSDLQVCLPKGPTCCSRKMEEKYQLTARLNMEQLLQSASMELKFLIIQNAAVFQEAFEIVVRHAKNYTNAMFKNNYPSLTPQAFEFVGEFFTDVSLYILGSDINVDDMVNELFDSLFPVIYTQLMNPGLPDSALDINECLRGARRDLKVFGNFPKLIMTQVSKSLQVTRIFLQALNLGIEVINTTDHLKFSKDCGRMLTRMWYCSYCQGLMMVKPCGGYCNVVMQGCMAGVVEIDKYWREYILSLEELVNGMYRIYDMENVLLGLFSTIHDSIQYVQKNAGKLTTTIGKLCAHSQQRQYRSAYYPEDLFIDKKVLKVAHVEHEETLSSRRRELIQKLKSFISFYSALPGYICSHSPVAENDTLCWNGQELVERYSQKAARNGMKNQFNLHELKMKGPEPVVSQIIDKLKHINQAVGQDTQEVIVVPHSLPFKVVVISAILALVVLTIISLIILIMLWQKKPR

Binder	binding result
B10	no binding
B3	binds
B4	binds
B5	binds
B6	binds
B7	binds
B8	binds
